Test in all cases: target-induced aptamer displacement, RDV release by UV-vis at 247 nm
Series [1] relates to cytochrome c. To be noted: 2 uM cytochrome c; 3'-SH on aptamer; 5'-COOH on complementary strand; Release assay buffer and temperature not given; Au-DNA stored in PBS (137 mM NaCl, 2.7 mM KCl, 10 mM Na2HPO4, 1.75 mM KH2PO4, 50 mM MgCl2, pH 7.4).
Series [2] has as its system immunoglobulin G (IgG). The settings on record: 2 uM IgG; 3'-SH on aptamer; 5'-COOH on complementary strand; Release assay buffer and temperature not given; Au-DNA stored in PBS (137 mM NaCl, 2.7 mM KCl, 10 mM Na2HPO4, 1.75 mM KH2PO4, 50 mM MgCl2, pH 7.4).
Series [3] relates to alkaline phosphatase (AKP). The settings on record: 20 U/mL AKP; 3'-SH on aptamer; 5'-COOH on complementary strand; Release assay buffer and temperature not given; Au-DNA stored in PBS (137 mM NaCl, 2.7 mM KCl, 10 mM Na2HPO4, 1.75 mM KH2PO4, 50 mM MgCl2, pH 7.4).
Series [4] has as its system hemoglobin (HGB). To be noted: 2 uM HGB; 3'-SH on aptamer; 5'-COOH on complementary strand; Release assay buffer and temperature not given; Au-DNA stored in PBS (137 mM NaCl, 2.7 mM KCl, 10 mM Na2HPO4, 1.75 mM KH2PO4, 50 mM MgCl2, pH 7.4).
Series [5] concerns fibrinogen (FIB). To be noted: 2 uM FIB; 3'-SH on aptamer; 5'-COOH on complementary strand; Release assay buffer and temperature not given; Au-DNA stored in PBS (137 mM NaCl, 2.7 mM KCl, 10 mM Na2HPO4, 1.75 mM KH2PO4, 50 mM MgCl2, pH 7.4).

The values below come from article PMC9688528.

As for “GCTGGATGTCGCTTACGACAATATTCCTTAGGGGCACCGCTACATTGACACATCCAGC / TTGTACTGGCTCATAGCTGGATGTGTCAATGTAGCGGTGCCCCTAAGGAATATTGTCGTAAGCG”, the binding signal (% of N protein signal) in series [1] stood at 9.13; in series [2], 7.05; in series [3], 11.6; in series [4] it was 6.22; in series [5], 4.56.
